Source: patent publication US20260272830A1, “Ocular Hydrogel Compositions” (The University of Birmingham, priority 2018, published 2026)

Assays:
[1] = molecular target: T1, collagen type I (rat tail) (Rattus norvegicus, UniProt P02454+P02466); assay: Collagen fibrillogenesis turbidity assay; format: biochemical
T1 construct: collagen type I (rat tail; Corning, UK); purchased Corning, UK; host or cells: rat tail (tissue-derived)
Description: Collagen fibrillogenesis: For the dose response curves, 75 μl of PBS was added to each well of a 96 well plate kept on ice. Varying hrDecorin doses were prepared by adding 400 μg/ml of hrDecorin to the first well and subsequently serial diluting (2-fold dilution) across the plate. Following dilution, a further 150 μl of PBS buffer was added to each well. Then, 75 μl of collagen type I (rat tail; Corning, UK) (800 μg/ml) was added to each well and incubated for 2 hours at 37° C. Subsequent absorbance readings were taken using a 405 nm plate reader. Each assay consisted of duplicate blank controls, and triplicate standard dilutions followed by triplicate sample dilutions. Kinetics of fibril formation were determined using a similar setup as the dose response, without serial dilution; incubating the samples within the plate reader, and taking data points every 2 minutes.

[2] = hrDecorin release from the fluid gel (ELISA); format: physicochemical; settings: cumulative release over 4 hours (240 mins), DMEM, 37° C.
Description: Levels of hrDecorin release from the gel were determined cumulatively, by placing 1 ml of the fluid gel containing hrDecorin in a 6 well plate. Then 2 ml of DMEM was placed over the sample and the plates were incubated at 37° C. At each time point, the media was removed for measurement of hrDecorin, and replaced with fresh media. Decorin release was quantified using an ELISA specific for human Decorin (R&D systems, Minneapolis, USA) in accordance with the manufacturer's protocol.

[3] = turbidity at 405 nm, 2 hours at 37° C.

T1 sequence (P02454 152-1207 limits assumed): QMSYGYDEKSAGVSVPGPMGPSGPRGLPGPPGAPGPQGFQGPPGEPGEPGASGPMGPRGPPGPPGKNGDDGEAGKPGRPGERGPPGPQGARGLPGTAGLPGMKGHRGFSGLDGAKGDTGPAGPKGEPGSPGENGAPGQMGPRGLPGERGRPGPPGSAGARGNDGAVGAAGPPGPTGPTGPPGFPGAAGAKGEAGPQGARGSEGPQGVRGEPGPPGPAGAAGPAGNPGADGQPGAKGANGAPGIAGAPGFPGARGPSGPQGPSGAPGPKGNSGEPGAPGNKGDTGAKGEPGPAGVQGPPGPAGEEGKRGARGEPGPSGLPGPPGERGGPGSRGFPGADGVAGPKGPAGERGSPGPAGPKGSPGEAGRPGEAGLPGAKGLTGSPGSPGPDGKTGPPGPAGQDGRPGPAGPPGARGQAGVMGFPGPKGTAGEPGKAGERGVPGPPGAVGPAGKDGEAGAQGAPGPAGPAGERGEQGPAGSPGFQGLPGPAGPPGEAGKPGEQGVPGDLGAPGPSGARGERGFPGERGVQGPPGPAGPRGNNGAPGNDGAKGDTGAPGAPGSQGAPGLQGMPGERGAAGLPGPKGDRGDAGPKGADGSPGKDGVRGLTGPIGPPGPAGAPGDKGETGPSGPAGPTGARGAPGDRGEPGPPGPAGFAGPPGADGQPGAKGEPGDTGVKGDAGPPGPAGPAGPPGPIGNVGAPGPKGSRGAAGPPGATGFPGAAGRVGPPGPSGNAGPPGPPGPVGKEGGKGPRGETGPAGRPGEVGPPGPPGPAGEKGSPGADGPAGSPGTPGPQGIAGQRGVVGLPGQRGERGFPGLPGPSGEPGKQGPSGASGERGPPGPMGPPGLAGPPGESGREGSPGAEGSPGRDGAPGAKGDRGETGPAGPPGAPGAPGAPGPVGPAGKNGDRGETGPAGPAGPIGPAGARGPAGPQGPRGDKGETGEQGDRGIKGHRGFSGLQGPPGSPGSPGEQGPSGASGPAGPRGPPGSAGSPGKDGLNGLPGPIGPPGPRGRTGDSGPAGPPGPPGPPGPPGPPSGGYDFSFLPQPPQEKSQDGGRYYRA
T1 sequence (P02466 86-1125 limits assumed): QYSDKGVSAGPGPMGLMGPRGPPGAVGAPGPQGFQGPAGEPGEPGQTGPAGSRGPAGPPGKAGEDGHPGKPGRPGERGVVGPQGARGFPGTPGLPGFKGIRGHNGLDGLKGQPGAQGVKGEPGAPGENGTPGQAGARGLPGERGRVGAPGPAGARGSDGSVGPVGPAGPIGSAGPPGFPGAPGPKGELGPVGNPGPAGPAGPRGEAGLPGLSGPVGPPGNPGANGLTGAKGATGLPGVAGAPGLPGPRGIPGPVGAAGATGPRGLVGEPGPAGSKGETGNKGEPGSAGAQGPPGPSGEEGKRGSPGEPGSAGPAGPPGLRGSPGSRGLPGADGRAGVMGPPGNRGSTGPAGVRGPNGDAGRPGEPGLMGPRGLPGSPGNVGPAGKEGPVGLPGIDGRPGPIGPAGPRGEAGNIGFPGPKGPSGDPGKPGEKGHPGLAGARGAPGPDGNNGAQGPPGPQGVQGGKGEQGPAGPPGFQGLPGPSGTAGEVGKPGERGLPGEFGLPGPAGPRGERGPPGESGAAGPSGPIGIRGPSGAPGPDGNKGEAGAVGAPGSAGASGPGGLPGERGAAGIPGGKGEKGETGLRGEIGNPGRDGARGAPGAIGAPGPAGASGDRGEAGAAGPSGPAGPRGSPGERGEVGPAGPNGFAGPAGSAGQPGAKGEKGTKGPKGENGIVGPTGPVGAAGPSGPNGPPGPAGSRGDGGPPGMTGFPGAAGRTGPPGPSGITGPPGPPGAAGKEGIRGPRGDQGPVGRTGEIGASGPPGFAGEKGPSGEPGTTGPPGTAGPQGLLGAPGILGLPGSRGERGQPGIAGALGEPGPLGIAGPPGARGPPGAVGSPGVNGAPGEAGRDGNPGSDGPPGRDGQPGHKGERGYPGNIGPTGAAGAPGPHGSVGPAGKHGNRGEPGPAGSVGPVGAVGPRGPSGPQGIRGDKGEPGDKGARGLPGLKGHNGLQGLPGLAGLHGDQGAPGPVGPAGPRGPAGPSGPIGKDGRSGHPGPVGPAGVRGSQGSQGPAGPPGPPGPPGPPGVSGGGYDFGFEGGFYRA

B1: hrDecorin: human recombinant decorin (Galacorin™; Catalent), anti-fibrotic small leucine-rich proteoglycan (protein, UniProt P07585 31-359, looked up)
Decorin: DEASGIGPEVPDDRDFEPSLGPVCPFRCQCHLRVVQCSDLGLDKVPKDLPPDTTLLDLQNNKITEIKDGDFKNLKNLHALILVNNKISKVSPGAFTPLVKLERLYLSKNQLKELPEKMPKTLQELRAHENEITKVRKVTFNGLNQMIVIELGTNPLKSSGIENGAFQGMKKLSYIRIADTNITSIPQGLPPSLTELHLDGNKISRVDAASLKGLNNLAKLGLSFNSISAVDNGSLANTPHLRELHLDNNKLTRVPGGLAEHKYIQVVYLHNNNISVVGSSDFCPPGHNTKKASYSGVSLFSNPVQYWEIQPSTFRCVYVRSAIQLGNYK
With B1 the “concentration at which minimum turbidity is achieved, above which no further reduction occurs” value [1, 3] was > 10000 ng/mL, the “critical concentration above which hrDecorin inhibits fibrillogenesis” value [1, 3] was 0.5 μg/ml and the “kinetics of fibril formation” value ([1]; turbidity read every 2 minutes) was “slowing the onset of fibrillogenesis”. For the same molecule, the “rate of release of hrDecorin from the eye drop system” value [2] was “almost linear over time”.
